Molecular target: OX40 on OX40-overexpressing cells (OX40过表达细胞表面OX40) (UniProt P43489)
Experiment: flow cytometry, positive control at 1 microgram/ml on OX40-overexpressing cells, goat anti-mouse IgG-PE

Chain of UniProt P43489 (P43489 29-277 limits assumed): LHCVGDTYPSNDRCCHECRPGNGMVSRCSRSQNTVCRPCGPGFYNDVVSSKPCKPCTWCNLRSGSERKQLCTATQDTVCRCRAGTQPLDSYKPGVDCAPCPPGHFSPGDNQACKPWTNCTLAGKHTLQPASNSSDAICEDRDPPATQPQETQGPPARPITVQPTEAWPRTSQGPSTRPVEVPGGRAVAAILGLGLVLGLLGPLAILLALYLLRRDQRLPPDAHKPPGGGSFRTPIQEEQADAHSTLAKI

Y586通道PE荧光值: 210000
Substance: 抗-OX40抗体 (clone ACT35, Biolegend) (antibody)

Source: patent CN114106174A
